Results: publication PMC4659947, “Asparagine requirement in Plasmodium berghei as a target to prevent malaria transmission and liver infections” (Nature Communications, 2015)

Substrate: N[C@@H](CC(=O)O)C(=O)O
Assay: purified protein
Type: biochemical, Plasmodium berghei
Conditions: 5 mM glutamine as amino donor, 10 mM ATP, 10 mM MgCl2, 50 mM Tris pH 8.0

B1: PbAS (recombinant P. berghei asparagine synthetase) (Plasmodium berghei ANKA) (protein)
chain: MCGILAIFHSSIETNRLRRKALRLSKILRHRGPDWNGIVVEENGDGTTNVLTHERLSIVDVLSGQQPLYDDKKEICLTINGEIYNHLELRKLVKQDILDALKSKSDCAIIPNLYKIYKEKLPCMLDGIFAGVISDKKYNTFFAFRDPIGICPLYIGYAADGSIWFASEFKALRIYCVRYVAFPPGHYYMCNNGKGEFVRYYNPNWWKLNSPIPNNKIDLEKIRITLENAVIKRLMGDVPFGVLLSGGLDSSIIASIISRHLKSIQTGTINNINGACVGKNNKNLNALKSFSIGLKDSPDLKAAKEVSDFLNTDHTEFHFTVDQGIDTLHDVIYHIETYDITTIRASTPMYILSRLIKSSCIKMVLSGEGSDEIFGGYLYFHKAPNAEEFHRELQRKIHDLHIYDVLRANKSTMAFGIEARVPFLDLEFLDLVMNIDPKEKMCSNNRIEKDILRRAFSGYLPDHILYRQKEQFSDGVGYNWIDGLKEYAEKKVSDAQFSRAPFLFPYNTPKTKEAYLYRCIFYQCFPEQCAQEFVPEGPSIACSTSKAIEWDEQFKVNPDQSGRYVLDVHKHSKNIEDIKAA
notes: full-length cDNA without stop codon in pET-20b(+), BamHI/XhoI, C-terminal 6xHis kept, E. coli Rosetta2DE3pLysS, Ni-NTA, 67 kDa; domains 1-202 and 203-581
Km: 260 ± 50 µM
